The values that follow come from the supplement of paper PMC10201428.

± gives the standard deviation of the averaged measurements.

The series relates to VchCAST RNA-guided transposition machinery (E. coli BL21(DE3) host, lacZ target). The series is described as follows: relative integration efficiency (T-RL orientation) vs wild-type transposon end (log2 (normalized fold change)); transposon end mutated: right end (5 bp flank + 75 bp right end); higher = more efficient transposition. A digest of the protocol: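 In E. coli BL21(DE3), a T7-driven effector plasmid was paired with a pUC57 mini-transposon donor containing 1549 left-end or 1849 right-end barcoded transposon variants. Cells grew on plates with 0.1 mM IPTG at 37°C for 18 h. Relative integration efficiency was derived from Illumina reads of genomic integration junctions against input plasmids, as a log-transformed output/input barcode fold change normalised to reference barcodes.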
As to “ACATTTGTTGATACAACCATAAGTTGATATTTTCAACCATAAAGTGATATTTATCACAACCATAAAGTGATATTTACTCTGATCATAGTCAGACCAACATTGCTACGACCCGTATTCGCACCGACAC”, the “relative integration efficiency (log2)” value worked out at 0.0778 ± 0.073.

For “ACATTTGTGGATACAACCCTAAAATGATAATTACACCCATAAATGGATCATTATCACCCCCAATTTAACTATAACGCTCTGATCATAGTCAGACCAACATTGCTACGACCCGTATTCGCACCGACAC”, the “relative integration efficiency (log2)” value is -4.36 ± 0.35.

On to “ACATTTGTTGATACAACCATAAAATGATAATTAATAATTATTTATAATCAGCAACTTCACCCATAAATTGATAATTATCACACCCATAAATTGATATTGCCTCTGATCATAGTCAGACCAACATTGC”, for which the “relative integration efficiency (log2)” value is -3.33 ± 0.32.

As to “ACATTTGTTGATACCACCATCAAATGGTAATTCCACCCATAAATTGATAATTATCACACCCAATTTAACTATAACGCTCTGATCATAGTCAGACCAACATTGCTACGACCCGTATTCGCACCGACAC”, the “relative integration efficiency (log2)” value was -3.19 ± 0.23.

“ACATTTGTTGATACAACCATAAAATCATAATTACACCCATAAATTCATAATTATCACACCCATAAATTCATATTGCCTCTGATCATAGTCAGACCAACATTGCTACGACCCGTATTCGCACCGACAC”: the “relative integration efficiency (log2)” value is -4.92 ± 0.57.

Turning to “ACATTTGTTGATACAACCATATATTGATATCTCCACCCATAAATTGATAATTATCACAACCATAAAATGATAATTACTCTGATCATAGTCAGACCAACATTGCTACGACCCGTATTCGCACCGACAC”, the “relative integration efficiency (log2)” value was -0.253 ± 0.0069.

Regarding “ACATTTGTTGATACAACCATAAAATGATAATTACAACCATAAAATGATAATTATGATAATTATCATTTTATGGTTGCTCTGATCATAGTCAGACCAACATTGCTACGACCCGTATTCGCACCGACAC”, the “relative integration efficiency (log2)” value was determined as 0.301 ± 0.039.

As for “ACATTTGTTGATACACCCATAAATTGATATTGCCAACCATAAAGTGATATTTATCACAACCATAAGTTGATATTTTCTCTGATCATAGTCAGACCAACATTGCTACGACCCGTATTCGCACCGACAC”, the “relative integration efficiency (log2)” value was -0.617 ± 0.14.

With “ACATTTGTTGATACAACCATAAAATGATAATTACACCCATAAATTGATAATTATCACACCCATAAAGGTCGCGGTAAGAGGATCATAGTCAGACCAACATTGCTACGACCCGTATTCGCACCGACAC”, the “relative integration efficiency (log2)” value was -0.82 ± 0.057.

Consider “ACATTTGTTGATACAACCATACCATGATAATTACACCCATACCTTGATAATTATCACACCCATACCTTGATATTGCCTCTGATCATAGTCAGACCAACATTGCTACGACCCGTATTCGCACCGACAC”, for which the “relative integration efficiency (log2)” value was -3.2 ± 0.16.

As for “ACATTTGTTCATACAACCATAAAATGATAATTACCACCCCTAAATTGATAATTATCACACCCATTTAACTATAACGCTCTGATCATAGTCAGACCAACATTGCTACGACCCGTATTCGCACCGACAC”, the “relative integration efficiency (log2)” value is -4.21 ± 0.08.

On to “ACATTTGTTGATACAACCATAAAATGATATTTACACCCATAAATTGATATTTATCACACCCATAAATTGATAATGCCTCTGATCATAGTCAGACCAACATTGCTACGACCCGTATTCGCACCGACAC”, for which the “relative integration efficiency (log2)” value was -0.257 ± 0.19.

In the case of “ACATTTGTTGATACAACCATAAGTTGATATTTTCAACCATATATTGATATCTCTCACAACCATAAGTTGATATTTTCTCTGATCATAGTCAGACCAACATTGCTACGACCCGTATTCGCACCGACAC”, the “relative integration efficiency (log2)” value is -0.118 ± 0.16.

Consider “ACATTTGTTGATACAACCATAAAGTGATATTTACAACCATAAAGTGATATTTATCAGTGGGTATTTAACTATAACGCTCTGATCATAGTCAGACCAACATTGCTACGACCCGTATTCGCACCGACAC”, for which the “relative integration efficiency (log2)” value was -0.497 ± 0.26.

Consider “ACATTTGTTGATACAACCATAAAATGATAATTACACCCATAAATTGATCCTTATCACACCCATAAATTGATATTGCCTCTGATCATAGTCAGACCAACATTGCTACGACCCGTATTCGCACCGACAC”, for which the “relative integration efficiency (log2)” value is -0.973 ± 0.3.

As for “ACATTTGTGGATACAACCCTAAAATGATAATTACACCCATAAATTGATAATTATCACACCCAATTTAACTATAACGCTCTGATCATAGTCAGACCAACATTGCTACGACCCGTATTCGCACCGACAC”, the “relative integration efficiency (log2)” value was -1.73 ± 0.26.

With “ACATTTGTCGATACAACCCTAAAATGATAATTACACCCATAAATTCATCATTATCACCCCCAATTTAACTATAACGCTCTGATCATAGTCAGACCAACATTGCTACGACCCGTATTCGCACCGACAC”, the “relative integration efficiency (log2)” value was -4.56 ± 0.18.

For “ACATTTGTTGATACATCCATAAAATGATAATTACAGCCATAAATTGATAATTATCACAGCCATAAATTGATATTGCCTCTGATCATAGTCAGACCAACATTGCTACGACCCGTATTCGCACCGACAC”, the “relative integration efficiency (log2)” value was -0.851 ± 0.072.

“ACATTACAAGATACAACCATAAAATGATAATTACACCCATAAATTGATAATTATCACACCCATAAATTGATATTGCCTCTGATCATAGTCAGACCAACATTGCTACGACCCGTATTCGCACCGACAC”: the “relative integration efficiency (log2)” value is -5.91 ± 0.056.

“ACATTTGTTGATACAACCATAAAAGGATAATTACCCCCATCAATTGATAATTATCACACCCCATTTAACTATAACGCTCTGATCATAGTCAGACCAACATTGCTACGACCCGTATTCGCACCGACAC”: the “relative integration efficiency (log2)” value is -3.19 ± 0.27.

On to “ACATTTGTTCATACAACCATAAAATGATAATTACACCCATAAATTCATCATTATCACACCCAATTTAACTATAACGCTCTGATCATAGTCAGACCAACATTGCTACGACCCGTATTCGCACCGACAC”, for which the “relative integration efficiency (log2)” value was -2.35 ± 0.22.

On to “ACATTTGTTGATACCACCATAAAATGGTAATTCCACCCCTAAATTGATAATTATCACACCCAATTTAACTATAACGCTCTGATCATAGTCAGACCAACATTGCTACGACCCGTATTCGCACCGACAC”, for which the “relative integration efficiency (log2)” value is -3.4 ± 0.27.

As for “ACATTTGTTGATACAACCATAAAATGATCATTCACCCATAAATTGATAATTATCACACCCACATTTAACTATAACGCTCTGATCATAGTCAGACCAACATTGCTACGACCCGTATTCGCACCGACAC”, the “relative integration efficiency (log2)” value was -3.25 ± 0.26.

As to “ACATTTGTTGATACAACCATAAAATCATAATTACCCCCATAAATTGATAATTATCACACCCAATTTAACTATAACGCTCTGATCATAGTCAGACCAACATTGCTACGACCCGTATTCGCACCGACAC”, the “relative integration efficiency (log2)” value is -3.09 ± 0.33.

“ACATTTGTTGATACAACCATATATTGATATCTCCACCCATAAATTGATATTGCTCACAACCATAAAGTGATATTTACTCTGATCATAGTCAGACCAACATTGCTACGACCCGTATTCGCACCGACAC”: the “relative integration efficiency (log2)” value was -0.6 ± 0.069.
